Data as given in patent US20190262387A1.
No end group written: not given here.

Experiments:
[1] = molecular target: collagen II (thin coating on polystyrene tissue culture plate); test: normalized fluorescence of PEG-fluorescein conjugated peptide on collagen II coated plate after washing; reference is scrambled collagen II binding peptide (FIG. 2I)
[2] = molecular target: collagen I (thin coating on polystyrene tissue culture plate); test: normalized fluorescence of PEG-fluorescein conjugated peptide on collagen I coated plate after washing; reference is scrambled collagen I binding peptide (FIG. 2D)

normalized fluorescence intensity relative to scrambled peptide (times that of scrambled peptide) [1] | normalized fluorescence intensity relative to scrambled peptide (times that of scrambled peptide) [2] | Binder
1.65 |  | WYRGRL (also: conjugated to PEG-fluorescein, site not given here) [collagen II binding peptide conjugated to PEG-fluorescein]
 | 1.55 | YSFYSDESLQ (also: conjugated to PEG-fluorescein, site not given here) [collagen I binding peptide conjugated to PEG-fluorescein]
